In patent publication US6982082 (Harvard, dated 2006):

Columns and labels:
[1] = molecular target: CypA wild type with N-terminal FLAG epitope tag, expressed from pBJ5 in Jurkat cells (UniProt P62937 1-165); assay: cell-based or functional assay
[2] = molecular target: CypAgtm (S99T, F113G, C115M) with N-terminal FLAG epitope tag, expressed from pBJ5 in Jurkat cells (UniProt P62937 1-165); assay: cell-based or functional assay
CypAgtm (S99T, F113G, C115M) with N-terminal FLAG epitope tag, expressed from pBJ5 in Jurkat cells, sequence (P62937 whole entry S99T/F113G/C115M): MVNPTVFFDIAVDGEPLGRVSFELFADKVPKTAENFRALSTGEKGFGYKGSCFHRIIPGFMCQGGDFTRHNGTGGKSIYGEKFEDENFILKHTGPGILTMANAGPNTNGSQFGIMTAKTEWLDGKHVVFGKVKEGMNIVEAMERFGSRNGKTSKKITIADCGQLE

CypA wild type with N-terminal FLAG epitope tag, expressed from pBJ5 in Jurkat cells, sequence (P62937 whole entry): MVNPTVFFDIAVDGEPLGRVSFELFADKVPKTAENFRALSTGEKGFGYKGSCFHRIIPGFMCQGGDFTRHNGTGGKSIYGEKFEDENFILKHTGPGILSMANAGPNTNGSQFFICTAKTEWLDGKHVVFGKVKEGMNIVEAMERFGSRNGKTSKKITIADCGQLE

B1: alpha-cyclopentyl, sarcosine11-CsA (CpSar11-CsA) (peptide)
peptide: XXXXXVXAXXX
modifications: head-to-tail cyclic undecapeptide made by cyclising linear peptide 11; residues as printed: CpSar (L-alpha-cyclopentylsarcosine, position 11 of CsA)-MeBmt-Abu-Sar-MeLeu-Val-MeLeu-Ala-D-Ala-MeLeu-MeLeu (N-methylated residues, D-Ala, Abu, MeBmt)
For B1, the “IC50 in Cellular NFAT-Signalling” value [1] was > 0.4 µM and the “IC50 in Cellular NFAT-Signalling” value [2] was 0.025 µM.
